Measured values reported in patent US20190135918A1 (ICHNOS SCIENCES, published 2019).

Key:
[1] = biological target: T1, F16 (peptide-Fc fusion derived from the extracellular domain of human CD38) (human, UniProt P0DOX5 223-449 = IgG part); experiment: SPR, humanized 9G7 immobilized on the chip, peptide-Fc fusion injected
T1 construct: As F1; by count CD38 residues 238-250

[2] = biological target: T2, F10 (peptide-Fc fusion derived from the extracellular domain of human CD38) (human, UniProt P0DOX5 223-449 = IgG part); experiment: as above
T2 construct: As F1; by count CD38 residues 160-172

[3] = biological target: T3, F14 (peptide-Fc fusion derived from the extracellular domain of human CD38) (human, UniProt P0DOX5 223-449 = IgG part); experiment: as above
T3 construct: As F1; by count CD38 residues 212-224

[4] = biological target: T4, F15 (peptide-Fc fusion derived from the extracellular domain of human CD38) (human, UniProt P0DOX5 223-449 = IgG part); experiment: as above
T4 construct: As F1; by count CD38 residues 225-237

[5] = biological target: T5, F11 (peptide-Fc fusion derived from the extracellular domain of human CD38) (human, UniProt P0DOX5 223-449 = IgG part); experiment: as above
T5 construct: As F1; by count CD38 residues 173-185

[6] = biological target: T6, F19 (peptide-Fc fusion derived from the extracellular domain of human CD38) (human, UniProt P0DOX5 223-449 = IgG part); experiment: as above
T6 construct: As F1; by count CD38 residues 277-289

[7] = biological target: T7, F18 (peptide-Fc fusion derived from the extracellular domain of human CD38) (human, UniProt P0DOX5 223-449 = IgG part); experiment: as above
T7 construct: As F1; by count CD38 residues 264-276

[8] = biological target: T8, F12 (peptide-Fc fusion derived from the extracellular domain of human CD38) (human, UniProt P0DOX5 223-449 = IgG part); experiment: as above
T8 construct: As F1; by count CD38 residues 186-198

[9] = biological target: T9, F17 (peptide-Fc fusion derived from the extracellular domain of human CD38) (human, UniProt P0DOX5 223-449 = IgG part); experiment: SPR, antibody immobilized, peptide-Fc fusion injected
T9 construct: As F1; by count CD38 residues 251-263

[10] = biological target: T10, F2 (peptide-Fc fusion derived from the extracellular domain of human CD38) (human, UniProt P0DOX5 223-449 = IgG part); experiment: as above
T10 construct: As F1; by count CD38 residues 56-68

[11] = biological target: T11, F9 (peptide-Fc fusion derived from the extracellular domain of human CD38) (human, UniProt P0DOX5 223-449 = IgG part); experiment: as above
T11 construct: As F1; by count CD38 residues 147-159

[12] = biological target: T12, F8 (peptide-Fc fusion derived from the extracellular domain of human CD38) (human, UniProt P0DOX5 223-449 = IgG part); experiment: as above
T12 construct: As F1; by count CD38 residues 134-146

[13] = biological target: T13, F13 (peptide-Fc fusion derived from the extracellular domain of human CD38) (human, UniProt P0DOX5 223-449 = IgG part); experiment: as above
T13 construct: As F1; by count CD38 residues 199-211

[14] = biological target: T14, F5 (peptide-Fc fusion derived from the extracellular domain of human CD38) (human, UniProt P0DOX5 223-449 = IgG part); experiment: as above
T14 construct: As F1; by count CD38 residues 95-107

[15] = biological target: T15, F3 (peptide-Fc fusion derived from the extracellular domain of human CD38) (human, UniProt P0DOX5 223-449 = IgG part); experiment: as above
T15 construct: As F1; by count CD38 residues 69-81; also called F3 construct

[16] = biological target: T16, F1 (peptide-Fc fusion derived from the extracellular domain of human CD38) (human, UniProt P0DOX5 223-449 = IgG part); experiment: as above
T16 construct: 13-residue peptide fused to human IgG1 Fc (CH2-CH3) with an Ala-Ser linker; by count CD38 residues 43-55

[17] = biological target: T17, F20 (peptide-Fc fusion derived from the extracellular domain of human CD38) (human, UniProt P0DOX5 223-449 = IgG part); experiment: as above
T17 construct: Final peptide of 11 amino acids, else as F1; by count CD38 residues 290-300

[18] = biological target: T18, F7 (peptide-Fc fusion derived from the extracellular domain of human CD38) (human, UniProt P0DOX5 223-449 = IgG part); experiment: as above
T18 construct: As F1; by count CD38 residues 121-133

[19] = biological target: T19, F4 (peptide-Fc fusion derived from the extracellular domain of human CD38) (human, UniProt P0DOX5 223-449 = IgG part); experiment: as above
T19 construct: As F1; by count CD38 residues 82-94

[20] = biological target: T20, soluble extracellular region of cynomolgus monkey CD38 antigen fused to a 6-His-tag (cynomolgus monkey, UniProt Q5VAN0 45-301); experiment: SPR
T20 construct: also called cynomolgus CD38

[21] = biological target: T21, soluble extracellular region of human CD38 fused to a 6-His-tag (human, UniProt P28907 43-300); experiment: SPR, equilibrium response, antibody captured on protein G
T21 construct: Expressed with the murine VJ2C leader; also called human CD38 protein; human CD38 antigen

[22] = biological target: T15, F3 (peptide-Fc fusion derived from the …); experiment: SPR, antibody immobilized on the chip, peptide-Fc fusion injected (1000 nM per paragraph 238)
[23] = biological target: T9, F17 (peptide-Fc fusion derived from the …); experiment: SPR, human 767 antibody immobilized on the chip, peptide-Fc fusion injected
[24] = biological target: T10, F2 (peptide-Fc fusion derived from the …); experiment: as above
[25] = biological target: T13, F13 (peptide-Fc fusion derived from the …); experiment: as above
[26] = biological target: T4, F15 (peptide-Fc fusion derived from the …); experiment: as above
[27] = biological target: T16, F1 (peptide-Fc fusion derived from the …); experiment: as above
[28] = biological target: T17, F20 (peptide-Fc fusion derived from the …); experiment: as above
[29] = biological target: T8, F12 (peptide-Fc fusion derived from the …); experiment: as above
[30] = biological target: T1, F16 (peptide-Fc fusion derived from the …); experiment: SPR, antibody immobilized, peptide-Fc fusion injected
[31] = biological target: T2, F10 (peptide-Fc fusion derived from the …); experiment: as above
[32] = biological target: T3, F14 (peptide-Fc fusion derived from the …); experiment: as above
[33] = biological target: T5, F11 (peptide-Fc fusion derived from the …); experiment: as above
[34] = biological target: T6, F19 (peptide-Fc fusion derived from the …); experiment: as above
[35] = biological target: T22, F6 (peptide-Fc fusion derived from the extracellular domain of human CD38) (human, UniProt P0DOX5 195-449 = IgG part); experiment: as above
T22 construct: As F1; by count CD38 residues 108-120 (holds M110)

[36] = biological target: T7, F18 (peptide-Fc fusion derived from the …); experiment: as above

B1: humanized 9G7 antibody (best-fit version) as used in Example 10 (antibody, human IgG1, kappa, V domains shown)
VH: QVTLKESGPTLVKPTQTLTLTCTFSGLSLSTSGKGVGWIRQPPGKALEWLAHIWWDDDKRYNPALKSRLTITKDTSKNQVVLTMTNMDPVDTATYYCARIELGRSYVMDYWGQGTLVTVSS
VL: DIQMTQSPSSLSASVGDRVTITCQASQDVITSVAWFQQKPGKAPKLLIYSASYRYTGVPSRFSGSGSGTDFTFTISSLQPEDIATYYCQQHYTIPLTFGQGTKLEIKR
notes: also called h9G7
no binding (tested: 15 nM; 200 nM): binding result [9] | binding result [10] | binding result [11] | binding result [12] | binding result [13] | binding result [14] | binding result [15] | binding result [16] | binding result [17] | binding result [18] | binding result [19]
no binding (tested: 15 nM): binding result [1] | binding result [2] | binding result [3] | binding result [4] | binding result [5] | binding result [6] | binding result [7] | binding result [8]

B2: human 767 antibody (antibody, human IgG1, kappa, V domains shown)
VH: QVQLVESGGGLVQPGGSLRLSCAASGFTFSSYWMSWVRQAPGKGLEWVANIKQDGSEKYYVDSVKGRFTISRDNAKNSLYLQMNSLRAEDTAVYYCAREGRTGYFDYWGQGTLVTVSS
VL: QSVLTQPPSASGTPGQRVTISCSGSTSNIGTNYVYWYQQLPGTAPKLLIYRNDQRPSGVPDRFSGSKSGTSASLAISGLRSEDEADYYCAAWDDSRSGVYAFGTGTKVTVLR
notes: Human IgG1
no binding: binding result [23] | binding result [24] | binding result [25] | binding result [26] | binding result [27] | binding result [28] | binding result [29]
no binding (tested: 1000 nM): binding result [30] | binding result [31] | binding result [32] | binding result [11] | binding result [12] | binding result [14] | binding result [33] | binding result [34] | binding result [18] | binding result [35] | binding result [19] | binding result [36]
binds: binding result [22]
~300 nM: Kd [21]
~1200 nM: Kd [20]
